Molecular target: T1, low-density lipoprotein receptor-related protein 1 (LRP1) (UniProt Q07954 20-4544)
T1 construct: low-density lipoprotein receptor-related protein 1 (LRP1), full length, purified from placenta; also called full-length LRP1; purified LRP1
Experiment: SPR; Biacore 3000; full-length LRP1 amine-coupled to a CM5 chip; sFRP-5 (1.6-100 nmol/l) flowed over at 20 ul/min, 25°C, in HBS-P (0.01 M HEPES pH 7.4, 0.15 M NaCl, 0.005% P20) with 1 mM CaCl2; Req from a pseudo-first order fit with a nonspecific component, plotted against concentration and fitted to a single class of sites
Conditions: both partners purified

T1 sequence (Q07954 20-4544): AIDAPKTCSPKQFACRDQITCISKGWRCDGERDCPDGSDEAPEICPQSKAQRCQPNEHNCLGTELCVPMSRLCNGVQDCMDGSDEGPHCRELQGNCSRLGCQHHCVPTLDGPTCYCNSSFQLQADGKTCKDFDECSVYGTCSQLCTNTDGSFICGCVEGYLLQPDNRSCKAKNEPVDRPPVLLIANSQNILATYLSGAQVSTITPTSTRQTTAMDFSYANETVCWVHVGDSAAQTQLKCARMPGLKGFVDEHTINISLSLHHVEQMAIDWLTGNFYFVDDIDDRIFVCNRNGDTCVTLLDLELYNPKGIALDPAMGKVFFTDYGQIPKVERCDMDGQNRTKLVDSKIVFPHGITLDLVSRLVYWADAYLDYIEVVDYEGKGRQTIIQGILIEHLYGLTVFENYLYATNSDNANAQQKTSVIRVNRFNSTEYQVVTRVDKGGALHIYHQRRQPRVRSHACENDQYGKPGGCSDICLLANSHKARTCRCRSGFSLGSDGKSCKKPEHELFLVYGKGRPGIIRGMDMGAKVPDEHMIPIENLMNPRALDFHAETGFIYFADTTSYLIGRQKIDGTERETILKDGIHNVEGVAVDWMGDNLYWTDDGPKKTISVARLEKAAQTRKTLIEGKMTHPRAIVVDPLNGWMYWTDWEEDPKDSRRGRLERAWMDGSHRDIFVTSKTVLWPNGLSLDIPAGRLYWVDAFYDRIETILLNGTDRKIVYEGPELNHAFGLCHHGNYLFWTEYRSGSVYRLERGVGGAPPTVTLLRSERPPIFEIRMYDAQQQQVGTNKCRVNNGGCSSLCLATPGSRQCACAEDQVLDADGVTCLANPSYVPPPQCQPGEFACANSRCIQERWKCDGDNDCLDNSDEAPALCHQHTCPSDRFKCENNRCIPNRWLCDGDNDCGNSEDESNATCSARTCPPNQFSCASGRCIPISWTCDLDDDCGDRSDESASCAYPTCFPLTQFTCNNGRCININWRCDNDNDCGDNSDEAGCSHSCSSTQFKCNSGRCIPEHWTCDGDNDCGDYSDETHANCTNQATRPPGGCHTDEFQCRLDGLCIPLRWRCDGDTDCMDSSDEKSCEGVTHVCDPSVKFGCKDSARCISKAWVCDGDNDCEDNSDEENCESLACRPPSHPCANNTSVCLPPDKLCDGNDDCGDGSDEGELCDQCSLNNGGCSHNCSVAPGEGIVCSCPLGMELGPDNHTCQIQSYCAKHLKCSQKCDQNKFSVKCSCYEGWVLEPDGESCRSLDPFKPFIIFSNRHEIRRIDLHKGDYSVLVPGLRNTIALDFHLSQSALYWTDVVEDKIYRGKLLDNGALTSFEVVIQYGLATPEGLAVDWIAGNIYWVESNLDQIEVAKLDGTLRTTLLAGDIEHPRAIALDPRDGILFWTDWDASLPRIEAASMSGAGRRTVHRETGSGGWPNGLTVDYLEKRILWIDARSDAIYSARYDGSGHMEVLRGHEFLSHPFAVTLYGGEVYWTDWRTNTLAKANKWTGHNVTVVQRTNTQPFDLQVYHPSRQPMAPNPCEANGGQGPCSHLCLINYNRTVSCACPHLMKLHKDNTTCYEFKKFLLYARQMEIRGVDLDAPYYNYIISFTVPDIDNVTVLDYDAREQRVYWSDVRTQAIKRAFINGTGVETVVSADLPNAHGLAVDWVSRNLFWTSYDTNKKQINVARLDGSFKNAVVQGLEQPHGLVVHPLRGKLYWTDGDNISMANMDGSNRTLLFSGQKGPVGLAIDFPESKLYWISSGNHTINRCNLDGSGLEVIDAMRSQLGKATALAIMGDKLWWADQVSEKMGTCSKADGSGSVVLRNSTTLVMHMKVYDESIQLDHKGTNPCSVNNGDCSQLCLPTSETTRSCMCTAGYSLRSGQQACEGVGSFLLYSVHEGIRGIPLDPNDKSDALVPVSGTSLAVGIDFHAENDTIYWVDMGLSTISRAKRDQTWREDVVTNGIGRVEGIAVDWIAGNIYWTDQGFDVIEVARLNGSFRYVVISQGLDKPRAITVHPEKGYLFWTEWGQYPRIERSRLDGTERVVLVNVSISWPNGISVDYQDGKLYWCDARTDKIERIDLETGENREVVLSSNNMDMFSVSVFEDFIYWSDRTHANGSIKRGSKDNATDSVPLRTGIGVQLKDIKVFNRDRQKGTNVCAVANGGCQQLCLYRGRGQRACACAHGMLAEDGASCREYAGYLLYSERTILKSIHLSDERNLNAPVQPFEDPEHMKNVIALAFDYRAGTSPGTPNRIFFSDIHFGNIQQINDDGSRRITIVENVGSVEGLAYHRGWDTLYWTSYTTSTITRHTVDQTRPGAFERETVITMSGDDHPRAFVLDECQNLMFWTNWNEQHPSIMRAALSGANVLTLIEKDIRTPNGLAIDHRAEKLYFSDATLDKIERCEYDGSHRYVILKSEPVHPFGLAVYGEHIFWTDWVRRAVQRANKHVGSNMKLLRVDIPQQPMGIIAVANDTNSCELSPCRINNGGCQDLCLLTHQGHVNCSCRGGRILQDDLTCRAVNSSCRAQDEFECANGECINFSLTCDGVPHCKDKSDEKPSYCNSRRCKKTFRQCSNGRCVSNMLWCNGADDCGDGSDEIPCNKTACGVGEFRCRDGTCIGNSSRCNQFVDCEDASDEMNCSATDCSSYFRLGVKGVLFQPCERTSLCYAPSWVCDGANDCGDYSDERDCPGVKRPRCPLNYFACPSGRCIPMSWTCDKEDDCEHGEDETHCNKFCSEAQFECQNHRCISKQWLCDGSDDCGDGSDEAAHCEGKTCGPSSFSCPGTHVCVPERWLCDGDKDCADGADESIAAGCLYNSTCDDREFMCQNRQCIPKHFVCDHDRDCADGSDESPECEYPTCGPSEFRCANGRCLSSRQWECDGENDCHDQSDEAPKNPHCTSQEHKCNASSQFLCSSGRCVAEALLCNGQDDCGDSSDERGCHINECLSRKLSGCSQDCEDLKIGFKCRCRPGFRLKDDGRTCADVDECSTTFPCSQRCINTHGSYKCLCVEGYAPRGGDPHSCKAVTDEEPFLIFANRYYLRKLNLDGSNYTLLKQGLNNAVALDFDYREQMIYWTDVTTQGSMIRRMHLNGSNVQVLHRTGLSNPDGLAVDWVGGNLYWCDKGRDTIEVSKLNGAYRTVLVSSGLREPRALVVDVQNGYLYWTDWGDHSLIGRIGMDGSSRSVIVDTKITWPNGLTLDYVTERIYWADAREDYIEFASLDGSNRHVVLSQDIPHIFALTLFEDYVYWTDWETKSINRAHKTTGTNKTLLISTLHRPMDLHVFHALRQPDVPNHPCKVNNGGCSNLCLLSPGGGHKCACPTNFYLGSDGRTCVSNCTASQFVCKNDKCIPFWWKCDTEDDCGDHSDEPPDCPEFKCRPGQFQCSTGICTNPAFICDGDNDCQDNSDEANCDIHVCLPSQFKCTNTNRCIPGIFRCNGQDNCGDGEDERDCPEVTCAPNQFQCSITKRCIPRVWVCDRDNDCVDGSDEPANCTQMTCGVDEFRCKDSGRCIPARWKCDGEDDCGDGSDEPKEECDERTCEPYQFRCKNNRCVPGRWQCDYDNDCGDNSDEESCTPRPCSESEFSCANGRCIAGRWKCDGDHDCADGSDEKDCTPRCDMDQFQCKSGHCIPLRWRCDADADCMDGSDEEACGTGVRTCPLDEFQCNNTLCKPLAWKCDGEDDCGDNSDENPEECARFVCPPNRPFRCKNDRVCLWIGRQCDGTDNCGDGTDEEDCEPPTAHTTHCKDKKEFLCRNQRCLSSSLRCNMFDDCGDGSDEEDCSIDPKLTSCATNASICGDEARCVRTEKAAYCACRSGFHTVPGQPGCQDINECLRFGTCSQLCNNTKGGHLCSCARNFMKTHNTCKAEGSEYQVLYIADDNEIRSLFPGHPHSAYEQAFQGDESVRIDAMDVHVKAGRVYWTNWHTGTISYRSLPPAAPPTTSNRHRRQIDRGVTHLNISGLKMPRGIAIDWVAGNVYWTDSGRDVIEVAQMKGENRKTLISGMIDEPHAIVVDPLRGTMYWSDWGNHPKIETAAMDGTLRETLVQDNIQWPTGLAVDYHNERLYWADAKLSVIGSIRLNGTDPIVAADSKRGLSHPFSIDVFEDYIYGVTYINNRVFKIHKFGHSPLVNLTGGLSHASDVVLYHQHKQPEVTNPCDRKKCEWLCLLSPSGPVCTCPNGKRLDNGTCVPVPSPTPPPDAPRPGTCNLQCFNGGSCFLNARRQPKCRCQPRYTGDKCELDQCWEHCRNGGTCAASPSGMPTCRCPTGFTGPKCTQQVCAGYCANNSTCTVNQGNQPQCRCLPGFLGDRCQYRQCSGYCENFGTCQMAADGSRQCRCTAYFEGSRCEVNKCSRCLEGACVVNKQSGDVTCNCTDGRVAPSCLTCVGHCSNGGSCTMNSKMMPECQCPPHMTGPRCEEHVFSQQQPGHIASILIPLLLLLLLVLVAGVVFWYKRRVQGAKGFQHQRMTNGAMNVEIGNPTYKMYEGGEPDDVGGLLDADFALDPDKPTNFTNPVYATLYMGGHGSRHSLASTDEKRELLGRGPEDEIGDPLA

Kd: 32 nM
B1: secreted frizzled-related protein 5 (sFRP-5) (ligand, UniProt Q5T4F7 30-317, looked up)
chain: EEYDYYGWQAEPLHGRSYSKPPQCLDIPADLPLCHTVGYKRMRLPNLLEHESLAEVKQQASSWLPLLAKRCHSDTQVFLCSLFAPVCLDRPIYPCRSLCEAVRAGCAPLMEAYGFPWPEMLHCHKFPLDNDLCIAVQFGHLPATAPPVTKICAQCEMEHSADGLMEQMCSSDFVVKMRIKEIKIENGDRKLIGAQKKKKLLKPGPLKRKDTKRLVLHMKNGAGCPCPQLDSLAGSFLVMGRKVDGQLLLMAVYRWDKKNKEMKFAVKFMFSYPCSLYYPFFYGAAEPH
notes: secreted frizzled-related protein 5 (sFRP-5), commercial recombinant protein; source: bought: R&D Systems 6266-SF-050

From paper PMC6247401, “Macrophage LRP1 Promotes Diet-Induced Hepatic Inflammation and Metabolic Dysfunction by Modulating Wnt Signaling” (Mediators of Inflammation, 2018)
